In US20250257130A1 (NONA BIOSCIENCES SUZHOU, published 2025):

Tests used:
[1] = target: T1, cynomolgus ROR1 on CHO-K1-cynoROR1 cells (cynomolgus monkey, UniProt A0A2K5WTX7 30-937); test: flow cytometry on CHOK1-cynoROR1 cells, MFI (Mean) [bottom panel, letter not given]
T1 construct: whole, on cells
Description: (§1) Binding of recombinant anti-ROR1 antibodies to human or cynomolgus ROR1-overexpressing cells was tested by flow cytometry. In this example, ROR1-expressing cell lines are HEK293T cell lines that had been transfected to express human ROR1 on the surface (HEK293T-hu ROR1, KYINNO BIOTECHNOLOGY CO., LTD, Catalog #KC-1018), CHO-K1 cell lines that had been transfected to express cynomolgus ROR1 (CHOK1-cyno ROR1), PANC-1 (ATCC, catalog: CRL-1469) or A549 cell lines (Shanghai Institute of Biochemistry and Cell Biology, Chinese Academy of Sciences).
(§2) In brief, anti-ROR1 antibodies were serially diluted in staining buffer (PBS containing 2% FBS). Antibody solution was incubated with 1×10⁵ cells at 4° C. for 1 hour. […] After 1-hour incubation at 4° C., cells were washed twice with staining buffer and subjected to flow cytometry. PR000374 (Bench marker 1) and non-relevant IgG isotype control (Crownbio) were used as positive and negative controls, respectively.

[2] = target: T2, human ROR1 on cells (HEK293T-hROR1, PANC-1, A549) (human, UniProt Q01973 30-937); test: flow cytometry, HEK293T-hROR1 cells
T2 construct: whole, on cells; one molecule for the three cell lines; also called huROR1; cell surface ROR1
T2 sequence (Q01973 30-937): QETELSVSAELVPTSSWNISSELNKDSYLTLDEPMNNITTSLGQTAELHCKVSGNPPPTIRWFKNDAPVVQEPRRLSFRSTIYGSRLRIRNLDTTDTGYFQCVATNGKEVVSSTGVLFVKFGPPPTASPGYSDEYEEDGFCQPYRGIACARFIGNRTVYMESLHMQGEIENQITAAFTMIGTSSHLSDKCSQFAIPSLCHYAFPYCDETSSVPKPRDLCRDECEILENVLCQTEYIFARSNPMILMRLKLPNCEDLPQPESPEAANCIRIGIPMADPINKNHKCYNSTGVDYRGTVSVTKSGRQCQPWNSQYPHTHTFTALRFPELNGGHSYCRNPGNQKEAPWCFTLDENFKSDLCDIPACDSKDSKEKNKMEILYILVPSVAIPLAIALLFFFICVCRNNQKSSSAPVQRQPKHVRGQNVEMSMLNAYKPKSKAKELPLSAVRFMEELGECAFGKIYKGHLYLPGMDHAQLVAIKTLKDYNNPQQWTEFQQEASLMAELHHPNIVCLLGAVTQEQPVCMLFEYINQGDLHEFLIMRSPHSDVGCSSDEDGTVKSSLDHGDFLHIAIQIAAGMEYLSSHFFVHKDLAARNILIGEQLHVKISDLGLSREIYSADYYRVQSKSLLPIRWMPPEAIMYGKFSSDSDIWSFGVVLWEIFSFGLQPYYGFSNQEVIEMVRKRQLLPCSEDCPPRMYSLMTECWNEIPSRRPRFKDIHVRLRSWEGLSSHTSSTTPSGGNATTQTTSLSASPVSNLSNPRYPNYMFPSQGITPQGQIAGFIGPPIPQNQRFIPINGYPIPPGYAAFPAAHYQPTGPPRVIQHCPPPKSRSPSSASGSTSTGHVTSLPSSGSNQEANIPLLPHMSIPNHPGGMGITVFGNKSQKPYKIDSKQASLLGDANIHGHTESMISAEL
Description: as §2

[3] = target: T2, human ROR1 on cells (HEK293T-hROR1, …); test: flow cytometry on HEK293T-hROR1 cells, MFI (Mean)
Description: as §1, §2

[4] = target: T2, human ROR1 on cells (HEK293T-hROR1, …); test: flow cytometry, PANC-1 cells
Description: as §2

[5] = target: T3, Human ROR1-ECD-his (Acro Biosystems RO1-H522y) (human, UniProt Q01973 30-406); test: BLI in-tandem competition; competitor: PR303147
T3 construct: extracellular domain; bought protein; also called hROR1-ECD-his; hu-ROR1-ECD-his
T3 sequence (Q01973 30-406): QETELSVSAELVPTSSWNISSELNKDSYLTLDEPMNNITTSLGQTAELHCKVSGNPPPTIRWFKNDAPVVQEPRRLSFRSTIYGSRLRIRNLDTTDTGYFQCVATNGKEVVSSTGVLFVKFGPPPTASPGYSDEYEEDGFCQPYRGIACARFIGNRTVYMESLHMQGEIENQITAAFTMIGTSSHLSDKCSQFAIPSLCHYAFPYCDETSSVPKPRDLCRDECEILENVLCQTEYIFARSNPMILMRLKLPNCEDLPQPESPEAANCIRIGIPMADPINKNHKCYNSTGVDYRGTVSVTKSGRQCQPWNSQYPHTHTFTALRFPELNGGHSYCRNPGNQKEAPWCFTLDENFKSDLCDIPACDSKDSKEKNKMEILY
Text: (§3) To determine if anti-ROR1 antibodies bind to human ROR1 on different or approximate binding epitopes, the ForteBio Octet® RED96e platform was used to perform epitope competition experiments on the anti-ROR1 antibodies. Human ROR1 protein (Acrobiosystems, #RO1-H522y) was biotinylated and then captured onto SA biosensors (ForteBio, #18-5020) to reach loading level of 0.3-0.4 nm. The in-tandem competition assay format was applied and it contains two association steps. Firstly, the antigen-loaded biosensors bind to each antibody (a.k.a, First antibody, 1st Ab) with a saturating concentration of 200 nM for 180 seconds to reach equilibrium and then secondly bind to the competing antibodies (a.k.a, Second antibody, 2nd Ab) of 200 nM for 180 seconds. The second binding signals were recorded as the 100% signal of each antibody when the first antibodies were replaced by kinetics buffer. All the binding data were analyzed using ForteBio Data Analysis 11.0 software. The inhibition rate is calculated by the following formula: […]

[6] = target: T3, Human ROR1-ECD-his (Acro Biosystems …); test: BLI in-tandem competition; competitor: PR303145
Text: as §3

[7] = target: T2, human ROR1 on cells (HEK293T-hROR1, …); test: flow cytometry, A549 cells
Description: as §2

[8] = target: T4, hu-ROR2-ECD-his (Acrobiosystems RO2-H52E5) (human, UniProt Q01974 34-403); test: ELISA, plate coated with hu-ROR2-his at 1 µg/mL
T4 construct: extracellular domain; bought protein; also called Human ROR2 his-tagged protein; Human ROR2, His Tag
T4 sequence (Q01974 34-403): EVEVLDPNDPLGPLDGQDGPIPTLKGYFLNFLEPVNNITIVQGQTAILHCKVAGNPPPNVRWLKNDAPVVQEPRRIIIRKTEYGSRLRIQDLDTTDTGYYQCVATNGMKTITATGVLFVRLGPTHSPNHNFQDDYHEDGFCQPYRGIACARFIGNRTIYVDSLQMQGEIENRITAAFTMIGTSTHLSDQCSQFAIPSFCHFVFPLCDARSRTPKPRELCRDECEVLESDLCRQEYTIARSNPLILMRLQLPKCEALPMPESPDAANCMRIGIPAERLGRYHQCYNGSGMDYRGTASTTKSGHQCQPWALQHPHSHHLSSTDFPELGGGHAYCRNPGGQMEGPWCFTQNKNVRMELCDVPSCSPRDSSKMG
How it was run: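 Plates were coated overnight at 4 °C with 1 μg/mL human ROR2-ECD-his and blocked with 2% BSA. Serially diluted anti-ROR1 antibodies were bound for 1 h at 37 °C, then secondary antibody for 1 h at 37 °C. Detection was by TMB (~5 min), stopped with H2SO4, and read at 450/570 nm.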

[9] = target: T3, Human ROR1-ECD-his (Acro Biosystems …); test: ELISA, plate coated with hu-ROR1-his at 1 µg/mL
Description: Binding of recombinant anti-ROR1 antibodies to hu-ROR1-ECD-his was tested by ELISA. In brief, 1 μg/mL hu-ROR1-ECD-his was added to the 96-well plate, 100 μL each well, incubated at 4° C. overnight, washing the plates with 1×PBST 3 times, 300 ul/well, blocking the plates with 2% BSA in 1×PBST, 200 ul/well at 37° C. for 1 hour, anti-ROR1 antibodies were serially diluted in staining buffer (PBS containing 2% BSA). Antibody solution was added to the plate and incubates at 37° C. for 1 hour, washing the plates with 1×PBST 3 times, 300 ul/well, adding secondary antibody 100 ul/well and incubate at 37° C. for 1 hour, washing the plates with 1×PBST 3 times, 300 ul/well and then add 100 ul/well TMB for about 5 min, stop the reaction by adding 100 ul/well 2M H₂SO₄, read the plates with Molecular device spectra max plus384 at 450 nm and 570 nm.

[10] = target: T3, Human ROR1-ECD-his (Acro Biosystems …); test: BLI in-tandem competition; competitor: PR303201
Text: as §3

[11] = target: T3, Human ROR1-ECD-his (Acro Biosystems …); test: BLI in-tandem competition; competitor: PR000374
Text: as §3

| Binder | EC50 (read off the curve) [1] [µg/mL] | EC50 [2] [µg/mL] | MAX(MFI) [2] [MFI] | EC50 (read off the curve) [3] [µg/mL] | MAX(MFI) [4] [MFI] | Inhibition (%) [5] [%] | Inhibition (%) [6] [%] | EC50 [7] [µg/mL] | MAX(MFI) [7] [MFI] | binding result [8] | EC50 (read off the curve) [9] [µg/mL] | Inhibition (%) [10] [%] | Inhibition (%) [11] [%] | EC50 [4] [µg/mL] |
| --- | --- | --- | --- | --- | --- | --- | --- | --- | --- | --- | --- | --- | --- | --- |
| PR303191 (antibody, human IgG1, V domains shown, HCAb (heavy chain-only, human IgG1 Fc), no light chain) VH: EVQLLESGGGLVQPGGSLRLSCAASGFIFGSYAMSWVRQAPGKGLEWVSGISGTGGNTYYADSVKGRFTISRDNSKNTLYLQMNSLRAEDTAVYFCERGITIHGVVIIPPDYRGQGTLVTVSS | ~0.03 | 0.044 | 1.4e+07 | ~0.04 | 364000 | -60 | -70 | 0.01 | 650000 | no binding (tested: about 15 µg/ml) | ~0.0007 | 57 | -38 |  |
| PR303125 (antibody, human IgG1, V domains shown, HCAb (heavy chain-only, human IgG1 Fc), no light chain) VH: EVQLLESGGGLVQPGGSLRLSCAASGFTFSSHAMSWVRQAPGKGLEWVSAISGSGDSTHYAASVKGRFTISRDNSKNTLYLQMNSLRAEDTAVYYCETLLRFLESLGNDGFKIWGQGTMVTVSS | ~0.2 | 0.273 | 1.5e+07 | ~0.3 | 883000 | -88 | -41 | 0.16 | 668000 | no binding (tested: about 15 µg/ml) | ~0.002 | 86 | -24 | 0.463 |
| PR000374 (antibody, human IgG1, kappa, V domains shown, positive control; also called Bench marker 1) VH: EVQLVESGGGLVQPGRSLRLSCTASGSDINDYPITWVRQAPGQGLEWIGFINSGGSTWYASWVKGRFTISRDDSKSIAYLQMNSLKTEDTAVYYCARGYSTYYRDFNIWGQGTLVTVSS VL: DIQMTQSPSSLSASVGDRVTINCQASQSIDSNLAWFQQKPGQPPKLLIYRASNLASGVPDRFSGSGSGTDFTLTISSLEAEDVATYYCLGGVGAVSYRTSFGGGTKVEIKR | ~0.3 | 0.506 | 1.49e+07 | ~0.5 | 442000 | -72 | -61 | 0.61 | 695000 | no binding (tested: about 15 µg/ml) | ~0.0008 | -63 | 109 | 0.905 |
